Results on 125 sequences are retold here after the supplement of paper PMC9112550, “Optimization of the antimicrobial peptide Bac7 by deep mutational scanning” (BMC Biology, 2022).

The series has as its system Escherichia coli TOP10. Briefly: shrunken log2 fold change of peptide-encoding DNA abundance (4.5 h post-induction vs induction); higher = less antimicrobial activity (less host growth inhibition). As to conditions: time post-induction: 4.5 h; library: site-saturation at positions 5, 18, 19, 20.
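Note: peptides expressed intracellularly from a pBAD plasmid library in pooled LB shake-flask culture, induced with 0.3% L-arabinose, DNA abundance read by NGS, three biological replicates, DESeq2 with apeglm shrinkage.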

With RRIRCRPPRLPRPRPRPYTSPRP, the “shrunken log2 fold change” value is -0.526.
As for RRIRCRPPRLPRPRPRPPNTPRP, the figure is -0.0497.
The result for RRIRMRPPRLPRPRPRPCCNPRP reads -0.00151; that for RRIRIRPPRLPRPRPRPLWVPRP, 0.0248.
As for RRIRWRPPRLPRPRPRPQRRPRP, the figure is 0.358; as for RRIRKRPPRLPRPRPRPIQKPRP, 0.0671; as for RRIRSRPPRLPRPRPRPEHGPRP, -0.0838.
On to RRIRNRPPRLPRPRPRPFHVPRP, for which the “shrunken log2 fold change” value is -0.128.
As for RRIRSRPPRLPRPRPRPCVGPRP, the figure is -0.0336; as for RRIRQRPPRLPRPRPRPWRSPRP, 0.0241; as for RRIRQRPPRLPRPRPRPRIQPRP, -0.0402.
As for RRIRVRPPRLPRPRPRPKVDPRP, the figure is 0.0982; as for RRIRDRPPRLPRPRPRPRNCPRP, -0.152; as for RRIRNRPPRLPRPRPRPRGSPRP, 0.299.
As for RRIRWRPPRLPRPRPRPRRPPRP, the figure is 0.508; as for RRIRLRPPRLPRPRPRPIYCPRP, -0.527; as for RRIRKRPPRLPRPRPRPLVWPRP, 0.298.
In the case of RRIRMRPPRLPRPRPRPEVSPRP, the “shrunken log2 fold change” value was found to be 0.221.
Regarding RRIRYRPPRLPRPRPRPCFGPRP, the “shrunken log2 fold change” value was -0.0967.
As for RRIRERPPRLPRPRPRPQHHPRP, the figure is -0.771; as for RRIRQRPPRLPRPRPRPFAVPRP, -0.99; as for RRIRERPPRLPRPRPRPDAAPRP, 0.635.
The result for RRIRQRPPRLPRPRPRPHTYPRP reads -0.753.
The result for RRIRNRPPRLPRPRPRPWIIPRP reads -0.429; that for RRIRARPPRLPRPRPRPCFTPRP, -0.172; that for RRIRRRPPRLPRPRPRPIGLPRP, -0.0953.
As to RRIRCRPPRLPRPRPRPGWWPRP, the “shrunken log2 fold change” value was determined as 0.054.
As for RRIRDRPPRLPRPRPRPWVSPRP, the figure is -0.0385.
As for RRIRGRPPRLPRPRPRPARAPRP, the figure is 1.03; as for RRIRWRPPRLPRPRPRPKEWPRP, 0.00353.
Turning to RRIRLRPPRLPRPRPRPCIKPRP, the “shrunken log2 fold change” value was -0.752.
As for RRIRPRPPRLPRPRPRPGKSPRP, the “shrunken log2 fold change” value was -0.208.
The result for RRIRARPPRLPRPRPRPWGMPRP reads -0.00469.
The result for RRIRPRPPRLPRPRPRPESSPRP reads 1.89; that for RRIRVRPPRLPRPRPRPKLRPRP, 0.128.
Take RRIRYRPPRLPRPRPRPRDSPRP: the “shrunken log2 fold change” value was -0.269.
RRIRDRPPRLPRPRPRPGVAPRP: the “shrunken log2 fold change” value was 0.76.
As for RRIRIRPPRLPRPRPRPKMEPRP, the figure is -0.103; as for RRIRGRPPRLPRPRPRPERFPRP, 0.969.
The result for RRIRDRPPRLPRPRPRPHSNPRP reads 0.0359; that for RRIRRRPPRLPRPRPRPVVAPRP, 0.43; that for RRIRLRPPRLPRPRPRPTVSPRP, 0.0646.
As to RRIRDRPPRLPRPRPRPFCVPRP, the “shrunken log2 fold change” value is 0.483.
As for RRIRTRPPRLPRPRPRPHHFPRP, the figure is -0.0421.
RRIRVRPPRLPRPRPRPLMGPRP: the “shrunken log2 fold change” value was 0.0412.
As for RRIRTRPPRLPRPRPRPIRSPRP, the figure is 0.0601; as for RRIRYRPPRLPRPRPRPCTRPRP, -0.111.
As to RRIRMRPPRLPRPRPRPTDWPRP, the “shrunken log2 fold change” value turned out to be 1.27.
As for RRIRSRPPRLPRPRPRPRVDPRP, the figure is 0.0568.
The result for RRIRHRPPRLPRPRPRPWDLPRP reads -0.245.
As for RRIRIRPPRLPRPRPRPKNSPRP, the figure is -0.503.
Regarding RRIRNRPPRLPRPRPRPNKSPRP, the “shrunken log2 fold change” value is -0.338.
The result for RRIRYRPPRLPRPRPRPHESPRP reads 0.00952; that for RRIRRRPPRLPRPRPRPNDPPRP, 0.0958.
The result for RRIRRRPPRLPRPRPRPFSQPRP reads -0.422.
The result for RRIRQRPPRLPRPRPRPAYPPRP reads -0.167; that for RRIRMRPPRLPRPRPRPCRFPRP, -0.0352; that for RRIRTRPPRLPRPRPRPIFPPRP, 0.166.
Regarding RRIRQRPPRLPRPRPRPWSDPRP, the “shrunken log2 fold change” value was -0.276.
As for RRIRMRPPRLPRPRPRPAKGPRP, the figure is 0.271; as for RRIRKRPPRLPRPRPRPNPAPRP, -0.000888; as for RRIRYRPPRLPRPRPRPPTFPRP, -0.457.
As for RRIRNRPPRLPRPRPRPTIVPRP, the figure is -0.0363; as for RRIRDRPPRLPRPRPRPQFTPRP, 0.0284; as for RRIRPRPPRLPRPRPRPNLNPRP, -0.369.
RRIRERPPRLPRPRPRPFLRPRP: the “shrunken log2 fold change” value was -0.401.
For the sequence RRIRIRPPRLPRPRPRPNHAPRP, the “shrunken log2 fold change” value is -0.0782.
The result for RRIRTRPPRLPRPRPRPEYSPRP reads -0.0382.
For the sequence RRIRMRPPRLPRPRPRPAYKPRP, the “shrunken log2 fold change” value was found to be 0.0601.
As for RRIRSRPPRLPRPRPRPHCMPRP, the figure is -0.344.
As for RRIRTRPPRLPRPRPRPPDMPRP, the figure is -0.142; as for RRIRDRPPRLPRPRPRPITKPRP, 0.283; as for RRIRKRPPRLPRPRPRPLHQPRP, 0.393.
The result for RRIRYRPPRLPRPRPRPTKCPRP reads -0.544.
As to RRIRKRPPRLPRPRPRPMVQPRP, the “shrunken log2 fold change” value is 0.208.
As to RRIRMRPPRLPRPRPRPKHVPRP, the “shrunken log2 fold change” value was 0.0503.
The result for RRIRIRPPRLPRPRPRPNKDPRP reads -0.818; that for RRIRKRPPRLPRPRPRPGFLPRP, 0.203.
As for RRIRWRPPRLPRPRPRPYGEPRP, the figure is -0.0723.
As for RRIRYRPPRLPRPRPRPVWYPRP, the figure is -0.105; as for RRIRHRPPRLPRPRPRPPCRPRP, -0.0923; as for RRIRPRPPRLPRPRPRPYWHPRP, -0.405.
As for RRIRSRPPRLPRPRPRPRGHPRP, the “shrunken log2 fold change” value was -0.0222.
Take RRIRPRPPRLPRPRPRPWKKPRP: the “shrunken log2 fold change” value is -0.0306.
For RRIRLRPPRLPRPRPRPPKDPRP, the “shrunken log2 fold change” value is 0.137.
For the sequence RRIRARPPRLPRPRPRPRLTPRP, the “shrunken log2 fold change” value was found to be 1.58.
The result for RRIRIRPPRLPRPRPRPYYLPRP reads -0.423; that for RRIRQRPPRLPRPRPRPHPTPRP, -0.13.
As for RRIRCRPPRLPRPRPRPLHYPRP, the figure is -0.352; as for RRIRRRPPRLPRPRPRPPGCPRP, 0.417; as for RRIRCRPPRLPRPRPRPFWFPRP, -0.245.
The result for RRIRSRPPRLPRPRPRPSPVPRP reads -0.0362; that for RRIRHRPPRLPRPRPRPHDHPRP, -1.24; that for RRIRQRPPRLPRPRPRPWENPRP, 0.0728.
In the case of RRIRPRPPRLPRPRPRPKMIPRP, the “shrunken log2 fold change” value was -0.0706.
On to RRIRRRPPRLPRPRPRPDDRPRP, for which the “shrunken log2 fold change” value was 0.0215.
Turning to RRIRNRPPRLPRPRPRPTQIPRP, the “shrunken log2 fold change” value was 0.135.
As for RRIRSRPPRLPRPRPRPKDYPRP, the figure is -0.128; as for RRIRCRPPRLPRPRPRPKAMPRP, 0.234; as for RRIRNRPPRLPRPRPRPFFFPRP, 0.0988.
As for RRIRYRPPRLPRPRPRPVQPPRP, the figure is 0.219; as for RRIRIRPPRLPRPRPRPVHDPRP, -0.0869.
Turning to RRIRDRPPRLPRPRPRPKRRPRP, the “shrunken log2 fold change” value amounted to 0.529.
For the sequence RRIRTRPPRLPRPRPRPKVEPRP, the “shrunken log2 fold change” value stood at 0.12.
For the sequence RRIRRRPPRLPRPRPRPVHRPRP, the “shrunken log2 fold change” value was -0.0888.
As to RRIRWRPPRLPRPRPRPPQAPRP, the “shrunken log2 fold change” value came to 0.733.
The result for RRIRRRPPRLPRPRPRPTHVPRP reads 0.427; that for RRIRPRPPRLPRPRPRPFAQPRP, -0.0885.
The result for RRIRWRPPRLPRPRPRPTDIPRP reads -0.151; that for RRIRNRPPRLPRPRPRPMWNPRP, -0.294; that for RRIRGRPPRLPRPRPRPNSMPRP, 0.0537.
Regarding RRIRDRPPRLPRPRPRPNEKPRP, the “shrunken log2 fold change” value was -0.0281.
The result for RRIRPRPPRLPRPRPRPIKGPRP reads 0.0468; that for RRIRIRPPRLPRPRPRPVRLPRP, 0.499.
The result for RRIRRRPPRLPRPRPRPMCYPRP reads -0.069.
As for RRIRERPPRLPRPRPRPTTCPRP, the figure is 0.0164; as for RRIRWRPPRLPRPRPRPPGKPRP, 0.214.
In the case of RRIRHRPPRLPRPRPRPRDVPRP, the “shrunken log2 fold change” value is -0.191.
The result for RRIRERPPRLPRPRPRPLPDPRP reads -0.0462; that for RRIRQRPPRLPRPRPRPNIWPRP, -0.0842.
As for RRIRRRPPRLPRPRPRPNNLPRP, the figure is -0.293; as for RRIRDRPPRLPRPRPRPREVPRP, 0.454; as for RRIRSRPPRLPRPRPRPKMDPRP, 0.232.
As to RRIRNRPPRLPRPRPRPYMHPRP, the “shrunken log2 fold change” value is -0.671.
The result for RRIRCRPPRLPRPRPRPAAAPRP reads 0.528.
